The results in this text go back to IntAct's records for PubMed 27273569.

This test has as its target wsb1_human WSB1 (UniProt Q9Y6I7).
UniProt Q9Y6I7, sequence (Q9Y6I7 whole entry): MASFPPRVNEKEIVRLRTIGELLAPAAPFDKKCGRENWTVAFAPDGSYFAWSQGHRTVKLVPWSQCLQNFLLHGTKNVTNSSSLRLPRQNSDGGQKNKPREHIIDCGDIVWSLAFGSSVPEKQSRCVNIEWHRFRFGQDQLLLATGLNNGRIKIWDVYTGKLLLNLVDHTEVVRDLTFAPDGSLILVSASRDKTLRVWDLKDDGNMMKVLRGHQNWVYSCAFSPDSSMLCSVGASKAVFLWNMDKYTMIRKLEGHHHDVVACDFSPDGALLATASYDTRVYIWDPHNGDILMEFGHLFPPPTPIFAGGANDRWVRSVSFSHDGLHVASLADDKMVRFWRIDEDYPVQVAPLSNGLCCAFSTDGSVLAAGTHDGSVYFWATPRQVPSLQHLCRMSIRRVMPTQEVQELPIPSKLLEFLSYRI

“Leucine-rich repeat serine/threonine-protein kinase 2 (Homo sapiens), Q5S007 G2019S”: the “effect of a mutation on the interaction” value is on record as “with no effect”.
